According to US20240287172A1 (SCIRHOM, published 2024):

T1: hiR2-FL-H620R-T7 (human, UniProt Q6PJF5 1-856)
T1 sequence: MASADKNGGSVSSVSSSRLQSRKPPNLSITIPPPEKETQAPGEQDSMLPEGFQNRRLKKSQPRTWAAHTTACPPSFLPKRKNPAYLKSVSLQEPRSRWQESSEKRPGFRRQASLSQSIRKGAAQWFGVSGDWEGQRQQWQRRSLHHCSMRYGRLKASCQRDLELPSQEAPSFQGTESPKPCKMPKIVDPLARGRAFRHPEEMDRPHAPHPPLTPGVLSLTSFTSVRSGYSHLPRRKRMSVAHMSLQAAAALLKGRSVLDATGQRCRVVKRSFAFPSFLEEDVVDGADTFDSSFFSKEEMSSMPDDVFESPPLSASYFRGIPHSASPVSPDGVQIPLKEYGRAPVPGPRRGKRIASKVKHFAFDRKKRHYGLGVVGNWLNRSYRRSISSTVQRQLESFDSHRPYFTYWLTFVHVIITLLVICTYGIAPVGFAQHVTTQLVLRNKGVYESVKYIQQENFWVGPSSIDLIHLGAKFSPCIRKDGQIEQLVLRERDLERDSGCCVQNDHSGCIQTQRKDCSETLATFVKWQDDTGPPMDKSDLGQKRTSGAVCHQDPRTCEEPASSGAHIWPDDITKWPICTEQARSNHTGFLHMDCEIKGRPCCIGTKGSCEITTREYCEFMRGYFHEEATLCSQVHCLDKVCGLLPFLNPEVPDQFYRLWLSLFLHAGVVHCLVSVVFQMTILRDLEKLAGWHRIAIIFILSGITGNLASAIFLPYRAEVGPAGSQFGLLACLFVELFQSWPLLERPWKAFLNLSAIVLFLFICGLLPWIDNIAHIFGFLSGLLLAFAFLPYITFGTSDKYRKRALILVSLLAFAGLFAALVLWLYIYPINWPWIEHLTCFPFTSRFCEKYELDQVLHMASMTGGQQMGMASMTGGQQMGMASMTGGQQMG


Molecular target: T1, hiR2-FL-H620R-T7
Test: FACS, MEF-DKO cells, 3 µg/ml
Description: In brief, immortalized MEF-DKO hiR2-FL-G563D-T7, MEF-DKO hiR2-FL-A564P-T7, MEF-DKO hiR2-FL-1566E-T7, MEF-DKO hiR2-FL-D569E-T7, MEF-DKO hiR2-FL-E579K-T7, MEF-DKO hiR2-FL-Q580N-T7, MEF-DKO hiR2-FL-A581S-T7, MEF-DKO hiR2-FL-R582A-T7, MEF-DKO hiR2-FL-S583G-T7, MEF-DKO hiR2-FL-G587N-T7, MEF-DKO hiR2-FL-F588H-T7, MEF-DKO hiR2-FL-L589P-T7, MEF-DKO hiR2-FL-E594V-T7, MEF-DKO hiR2-FL-K596T-T7, MEF-DKO hiR2-FL-S607R-T7, MEF-DKO hiR2-FL-T612S-T7, MEF-DKO hiR2-FL-E617D-T7, MEF-DKO hiR2-FL-H620R-T7, MEF-DKO hiR2-FL-L636M-T7, MEF-DKO hiR2-FL-K638D-T7, MEF-DKO hiR2-FL-1771F-T7, MEF-DKO hiR2-FL-1825V-T7, MEF-DKO hiR2-FL-1828V-T7, MEF-DKO hiR2-FL-N829R-T7, MEF-DKO hiR2-FL-W830C-T7, MEF-DKO hiR2-FL-P831E-T7, MEF-DKO hiR2-FL-I833C-T7, MEF-DKO hiR2-FL-H835F-T7, MEF-DKO hiR2-FL-F8391-T7, MEF-DKO hiR2-FL-S843D-T7, MEF-DKO hiR2-FL-Q853A-T7, MEF-DKO hiR2-FL-V854Q-T7 and MEF-DKO hiR2-FL-R844K-T7 cells were harvested with 10 mM EDTA in PBS, washed and resuspended in FACS buffer (PBS, 3% FBS, 0.05% sodium azide), and seeded in Nunc U-bottom 96-well plates (Thermo Fisher Scientific, USA) at approximately 1×10⁵ cells per well. To pellet cells and remove supernatants, the plates were centrifuged at 1,500 rpm and 4° C. for 3 minutes. For primary staining, cells were resuspended in 100 μl per well of either FACS buffer alone (controls) or the purified antibodies 3, 5, 16, 22, 34, 42, 43, 44, 48, and 50 of the invention at 3 μg/ml in FACS buffer and incubated on ice for 1 hour. Afterwards, plates were centrifuged at 1,500 rpm and 4° C. for 3 minutes and washed twice with 200 μl per well of FACS buffer. For secondary staining, cells were spun down and resuspended in 100 μl per well of PE-conjugated goat anti-mouse IgG F(ab′)2 detection fragment (Dianova, Germany) diluted 1:100 in FACS buffer. Protected from light, the cell suspensions were incubated on ice for 1 hour. Plates were then centrifuged at 1,500 rpm and 4° C. for 3 minutes and washed three times with 200 μl per well of FACS buffer. Finally, cells were resuspended in 150 μl per well of FACS buffer and analyzed using a BD Accuri™ C6 Plus flow cytometer (Becton Dickinson, Germany).

Binder	loss of binding vs wild type
antibody 48 (antibody, V domains shown, mouse IgG, kappa light chain; also called clone #48; purified antibody 48) VH: QVQLQQSGTELVRPGTSVKVSCKASGYAFTNYLIEWVKQRPGQGLEWIGVINPGSGFTKYNEKFKGKATLTADKSSSTVYMHLSSLTSEDSAVYFCARGLYRAMDYWGQGTSVTVSS VL: DIQMTQSPASQSASLGESVTITCLASQTIATWLAWYQQKPGKSPQLLIYGATTLADGVPSRFSGGGSGTKFSFKISSLQAEDFVSYYCQQLYSTPYTFGGGTKLEIK	≥ 30%
antibody 50 (antibody, V domains shown, mouse IgG, kappa light chain; also called clone #50; purified antibody 50) VH: QVQLQQSGAELVRPGASVKVSCKASGYAFSNYLIEWVKQRPGQGLEWIGVINPGSGFTKYNEKFKGKATLTADKSSSTAYMQLSSLTSEDSAVYFCARGLYRAMDYWGQGTSVTVSS VL: DIQMTQSPASQSASLGESVTITCLASQTIGTWLAWYQQKPGKSPQLLIYAAASLADGVPSRFSGGGSGTKFSFKISSLQAEDFVNYYCQQIYSTPYTFGGGTKLEIK	≥ 30%
antibody 43 (antibody, V domains shown, mouse IgG, kappa light chain; also called clone #43; purified antibody 43) VH: QVALKESGPGILQPSQTLSLTCSFSGFSLSTFGMGVGWIRQSSGKGLEWLANIWWDDDKYYNPALKSRLTISKDASKNQAFLKIANVDTADTATYYCARIGNYGSNYWYFDVWGTGTTVTVSS VL: QIVLTQSPAIMSASPGERVTMTCSANSRISYMYWYQQKPGSSPRLLIYDTSNLASGVPVRFSGSGSGTSYSLTISRMEAEDAATYNCQQWSSYPLTFGAGTKLELK	≥ 30%
